Measured values as given in IntAct's records for PubMed 19008854.

B1: Antiviral innate immune response effector IFIT1 (Homo sapiens), P09914 (parent)
chain: MSTNGDDHQVKDSLEQLRCHFTWELSIDDDEMPDLENRVLDQIEFLDTKYSVGIHNLLAYVKHLKGQNEEALKSLKEAENLMQEEHDNQANVRSLVTWGNFAWMYYHMGRLAEAQTYLDKVENICKKLSNPFRYRMECPEIDCEEGWALLKCGGKNYERAKACFEKVLEVDPENPESSAGYAISAYRLDGFKLATKNHKPFSLLPLRQAVRLNPDNGYIKVLLALKLQDEGQEAEGEKYIEEALANMSSQTYVFRYAAKFYRRKGSVDKALELLKKALQETPTSVLLHHQIGLCYKAQMIQIKEATKGQPRGQNREKLDKMIRSAIFHFESAVEKKPTFEVAHLDLARMYIEAGNHRKAEENFQKLLCMKPVVEETMQDIHFHYGRFQEFQKKSDVNAIIHYLKAIKIEQASLTRDKSINSLKKLVLRKLRRKALDLESLSLLGFVYKLEGNMNEALEYYERALRLAADFENSVRQGP
partner: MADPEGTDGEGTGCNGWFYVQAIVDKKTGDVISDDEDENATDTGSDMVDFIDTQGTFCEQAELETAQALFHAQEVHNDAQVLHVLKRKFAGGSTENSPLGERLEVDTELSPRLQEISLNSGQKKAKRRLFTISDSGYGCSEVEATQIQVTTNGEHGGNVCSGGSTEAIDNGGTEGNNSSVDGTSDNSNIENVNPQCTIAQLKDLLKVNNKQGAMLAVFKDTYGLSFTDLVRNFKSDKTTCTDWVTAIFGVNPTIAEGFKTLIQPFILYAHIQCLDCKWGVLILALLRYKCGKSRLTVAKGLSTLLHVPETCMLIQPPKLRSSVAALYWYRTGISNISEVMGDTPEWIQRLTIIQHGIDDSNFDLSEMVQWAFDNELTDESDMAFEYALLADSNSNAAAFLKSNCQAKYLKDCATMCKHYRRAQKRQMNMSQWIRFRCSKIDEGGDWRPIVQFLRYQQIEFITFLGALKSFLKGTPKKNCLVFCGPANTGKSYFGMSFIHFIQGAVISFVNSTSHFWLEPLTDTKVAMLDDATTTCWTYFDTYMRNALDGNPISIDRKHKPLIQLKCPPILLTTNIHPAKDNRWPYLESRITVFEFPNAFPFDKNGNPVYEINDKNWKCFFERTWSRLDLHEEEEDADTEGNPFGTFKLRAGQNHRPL

Variants of: B1
Details: with ve1_hpv18 E1, P06789

Variant	effect of a mutation on the interaction
A114T	disrupting interaction
V121E	disrupting interaction
L118R	disrupting interaction
